From article PMC8692065 (Cell Reports, 2021)

Tests used:
SARS-CoV-2 RBD-mFc = SARS-CoV-2 RBD-mFc (SARS-CoV-2, original strain, UniProt P0DTC2); assay: flow cytometry on cells
SARS-CoV-2 S2-mFc = SARS-CoV-2 S2-mFc (SARS-CoV-2, original strain, UniProt P0DTC2); assay: flow cytometry on cells
SARS-CoV-2 Nucleocapsid = SARS-CoV-2 Nucleocapsid (SARS-CoV-2, UniProt P0DTC9); assay: ELISA

| Binder | binding result (SARS-CoV-2 S2-mFc) | other results |
| --- | --- | --- |
| mAb-56, displayed on nPnP hybridoma cells (single-ORF linker format) (antibody, V domains shown) VH: EVQLVESGGGLIQPGGSMRLSCAASGFSVGTTYMSWVRQAPGKGLEWVSVVFKGHDTYYRKSVKGRFTISRDSSKNTLYLQMSDLRAEDSAVYFCTNMVLTYDSGWYWLDYWGQGIRVTVSS VL: DIQMTQSPSPLSAFVGDMVTITCRASQSINNFLNWYQQKPGKAPRLLIYGASTLETGVPTRFSGSGSGTDFTFTISSLQPEDIATYYCQQYDNLPLTFGGGTKVEIK | – | binding result (SARS-CoV-2 RBD-mFc): binds |
| mAb-76, displayed on nPnP hybridoma cells (single-ORF linker format) (antibody, V domains shown) VH: QVQLQQWGAGLLKPSETLSRTCGVYGGSFSGFYWSWIRQPPGKGLEWIGEINQSGTTSYNPSLMSRVTVSVDTSKNQFSLKLNSVTAADTAVYYCARRRSSWFEAGVHWYFDLWGRGTLVTVSS VL: DIVMTQSPLSLAVTPGEPASISCRSSQSLLHSNGYNYLDWYLQKPGQSPQVLIYLGSNRASGVPDRFSGSGSGTDYTLKISRVEAEDAGVYYCMQALQTPTFGRGTKLEIK | – | binding result (SARS-CoV-2 RBD-mFc): binds |
| mAb-78, displayed on nPnP hybridoma cells (single-ORF linker format) (antibody, V domains shown) VH: QVQLVESGGGVVQPGRSLTLSCAVSGFSFNNYGMHWVRQAPGKGLEWVSFISYEGSKRYYMDSLKGRFTISRDSSKNEVYLQMNRLTPEDTAVYYCAKSRAYFHFSAGRGVFDYWGRGALVTVSS VL: DMQMTQSPSSLSASVGDRVTITCQASQDIGTYLNWYRHKPGEAPKLLIYHASNLETGVPSRFSGSGSGTDFSFTISSLQPEDIGTYYCQQYDDLPVFAFGPGTKVDLK | binds | – |
| mAb-80, displayed on nPnP hybridoma cells (single-ORF linker format) (antibody, V domains shown) VH: EVQLVESGGGLVQPGGSLRLSCAASGFTFSSYWMHWVRQAPGKGLVWVSRINSDERNTRYADSVRGRFTISRDNAKNTLSLQMNSLRVDDTAVYYCARGGAAISYLYYYYGMDVWGQGTTVTVSS VL: not shown | binds | – |
| mAb-111, displayed on nPnP hybridoma cells (single-ORF linker format) (antibody, V domains shown) VH: DVQLLESGGGLVQPGGSRRLSCAASGFTFSNHAMSWVRQAPGKGLEWVSSISGSGGSTDYGDSVKGRFIVSRDNPRNTLYLDMNNLRTQDTAVYYCAKDRTFFTDSMLESWGEGTLVTVSS VL: DIQMTQSPSSLSASVGDRVTITCRASQTISKSLNWYQQRPGKAPKLLIYAASNLQSGFPSRFSGSGSGTDFTLTISSVQPGDFATYYCQQTYSTPVTFGQGTTLEIK | binds | – |
| mAb-115, displayed on nPnP hybridoma cells (single-ORF linker format) (antibody, V domains shown) VH: EVQVVESGGGLVKPGGSLRLSCSVSGTTLADAWLNWVRQAPGKGLEWVGRIKSKPDVGTTEYAAPVKGRFIISRDDSGNSFFLQMTDLKPEDTAVYYCAARWEMQLWLRLFDFWGPGALVTVSS VL: EIVVTQSPATLSVSAGERANLSCRTSQSISRDLAWYQQKPGQAPRLLIYGVFSRATGIPARFSGSGSGTEFTLTISSLQSEDFAVYYCQQYNKWWTFGQGTKVEIK | binds | – |
| CR3022, secreted by nPnP hybridoma cells (single-ORF linker format), supernatant (antibody, V domains shown) VH: QMQLVQSGTEVKKPGESLKISCKGSGYGFITYWIGWVRQMPGKGLEWMGIIYPGDSETRYSPSFQGQVTISADKSINTAYLQWSSLKASDTAIYYCAGGSGISTPMDVWGQGTTVTVSS VL: not shown | – | binding result (SARS-CoV-2 Nucleocapsid): no binding |
